According to patent US20210403591A1 (OSSIANIX, published 2021):

Key:
[1] = molecular target: T1, recombinant mouse TfR-1, His-tagged (Sino Biological 50741-M07H) (mouse, UniProt Q62351 89-763); assay: SPR, His-captured TfR1
T1 construct: bought; His-tagged; also called mTfR1; mTfR-1
Protocol: (§1) Detailed binding kinetic analyses were performed to gain a better understanding of the relationship between affinity and brain penetration of the Clone C variants. Biacore surface plasmon resonance (SPR) analysis using immobilised mouse and human TfR-1 was performed for selected clones (Table 2).
(§2) Binding kinetics of VNAR-Fcs was determined by surface plasmon resonance (Biacore T200, GE Healthcare). CMS chips were coated with anti-His antibodies (His Capture Kit, GE Healthcare) as recommended by the manufacturer and human or mouse his-tagged TfR1 (SinoBiological) at 10 ug/mL in HBS-EP+ (GE Healthcare) was captured at flow rate 10 ul/min (contact time 120 s). […] A flow cell without TfR1 captured served as a reference. Sensorgrams were fitted and kinetic constants were determined using Biacore T200 Evaluation software. Chips were regenerated in 10 mM Glycine-HCl, pH 1.5 (contact time: 120 s at flow rate 30 ul/min).

[2] = molecular target: T2, recombinant human TfR-1, His-tagged (Sino Biological 11020-H07H) (human, UniProt P02786 89-760); assay: SPR, His-captured TfR1
T2 construct: bought; His-tagged; also called hTfR1; hTfR-1
Protocol: as §1, §2

[3] = molecular target: T3, mTfR-1 K191A on Expi293 cells (mouse, UniProt Q62351 1-763); assay: FACS, transfected Expi293 cells
T3 construct: whole, on cells
Protocol: (§3) Transfected Expi293 cells were harvested and 2×10⁵ cells were transferred into V-bottom 96-well plate for staining. The cells were blocked in PBS containing 1% BSA (FACS buffer) for 10 min on ice, centrifuged to remove the buffer and 1 μl of 8D3-hFc formatted antibody, Clone C-hFc or Clone C variants 18 and 13 (Table 1), all at 1 mg/ml, was added to the wells. The cells were co-stained with mouse Tf-Alexa647 (Jackson ImmunoResearch). After 30 minutes on ice, the cells were washed and incubated with anti-hFc-PE (eBioscience) for 20 minutes on ice, washed again and resuspended in […] of FACS buffer containing 5 μl of propidium iodide (PI) to exclude dead cells from the analysis. The percentage of double-positive cells that stained with mTf and the tested antibody was determined on a CytoFlex cytometer (Beckman Coulter). The percentage of cells in the double positive quadrant (Q2) for WT mTfR-1 was used for normalization.

[4] = molecular target: T4, mTfR-1 S255A on Expi293 cells (mouse, UniProt Q62351 1-763); assay: FACS, transfected Expi293 cells
T4 construct: whole, on cells
Protocol: as §3

[5] = molecular target: T5, mTfR-1 I198A on Expi293 cells (mouse, UniProt Q62351 1-763); assay: FACS, transfected Expi293 cells
T5 construct: whole, on cells
Protocol: as §3

[6] = molecular target: T6, mTfR-1 V382A on Expi293 cells (mouse, UniProt Q62351 1-763); assay: FACS, transfected Expi293 cells
T6 construct: whole, on cells
Protocol: as §3

[7] = molecular target: T7, mTfR-1 N253A on Expi293 cells (mouse, UniProt Q62351 1-763); assay: FACS, transfected Expi293 cells
T7 construct: whole, on cells
Protocol: as §3

[8] = molecular target: T8, WT mTfR-1 expressed on Expi293 cells (mouse, UniProt Q62351 1-763); assay: FACS, transfected Expi293 cells
T8 construct: whole, on cells
Protocol: as §3

[9] = molecular target: T9, mTfR-1 P227A on Expi293 cells (mouse, UniProt Q62351 1-763); assay: FACS, transfected Expi293 cells
T9 construct: whole, on cells
Protocol: as §3

[10] = molecular target: T10, mTfR-1 K380A on Expi293 cells (mouse, UniProt Q62351 1-763); assay: FACS, transfected Expi293 cells
T10 construct: whole, on cells
Protocol: as §3

[11] = molecular target: T11, mTfR-1 I279A on Expi293 cells (mouse, UniProt Q62351 1-763); assay: FACS, transfected Expi293 cells
T11 construct: whole, on cells
Protocol: as §3

[12] = molecular target: T12, mTfR-1 S196A on Expi293 cells (mouse, UniProt Q62351 1-763); assay: FACS, transfected Expi293 cells
T12 construct: whole, on cells
Protocol: as §3

[13] = molecular target: T13, mTfR-1 G330A on Expi293 cells (mouse, UniProt Q62351 1-763); assay: FACS, transfected Expi293 cells
T13 construct: whole, on cells
Protocol: as §3

[14] = molecular target: T14, mTfR-1 N333A on Expi293 cells (mouse, UniProt Q62351 1-763); assay: FACS, transfected Expi293 cells
T14 construct: whole, on cells
Protocol: as §3

[15] = molecular target: T15, mTfR-1 S197A on Expi293 cells (mouse, UniProt Q62351 1-763); assay: FACS, transfected Expi293 cells
T15 construct: whole, on cells
Protocol: as §3

[16] = molecular target: T16, mTfR-1 T228A on Expi293 cells (mouse, UniProt Q62351 1-763); assay: FACS, transfected Expi293 cells
T16 construct: whole, on cells
Protocol: as §3

[17] = molecular target: T17, mTfR-1 S329A on Expi293 cells (mouse, UniProt Q62351 1-763); assay: FACS, transfected Expi293 cells
T17 construct: whole, on cells
Protocol: as §3

[18] = molecular target: T18, mTfR-1 S328A on Expi293 cells (mouse, UniProt Q62351 1-763); assay: FACS, transfected Expi293 cells
T18 construct: whole, on cells
Protocol: as §3

[19] = molecular target: T19, mTfR-1 Q193A on Expi293 cells (mouse, UniProt Q62351 1-763); assay: FACS, transfected Expi293 cells
T19 construct: whole, on cells
Protocol: as §3

[20] = molecular target: T20, mTfR-1 K226A on Expi293 cells (mouse, UniProt Q62351 1-763); assay: FACS, transfected Expi293 cells
T20 construct: whole, on cells
Protocol: as §3

[21] = molecular target: T21, mTfR-1 G254A on Expi293 cells (mouse, UniProt Q62351 1-763); assay: FACS, transfected Expi293 cells
T21 construct: whole, on cells
Protocol: as §3

[22] = molecular target: T22, mTfR-1 S225A on Expi293 cells (mouse, UniProt Q62351 1-763); assay: FACS, transfected Expi293 cells
T22 construct: whole, on cells
Protocol: as §3

[23] = molecular target: T23, mTfR-1 P325A on Expi293 cells (mouse, UniProt Q62351 1-763); assay: FACS, transfected Expi293 cells
T23 construct: whole, on cells
Protocol: as §3

[24] = molecular target: T24, mTfR-1 S231A on Expi293 cells (mouse, UniProt Q62351 1-763); assay: FACS, transfected Expi293 cells
T24 construct: whole, on cells
Protocol: as §3

T15 sequence (Q62351 whole entry S197A): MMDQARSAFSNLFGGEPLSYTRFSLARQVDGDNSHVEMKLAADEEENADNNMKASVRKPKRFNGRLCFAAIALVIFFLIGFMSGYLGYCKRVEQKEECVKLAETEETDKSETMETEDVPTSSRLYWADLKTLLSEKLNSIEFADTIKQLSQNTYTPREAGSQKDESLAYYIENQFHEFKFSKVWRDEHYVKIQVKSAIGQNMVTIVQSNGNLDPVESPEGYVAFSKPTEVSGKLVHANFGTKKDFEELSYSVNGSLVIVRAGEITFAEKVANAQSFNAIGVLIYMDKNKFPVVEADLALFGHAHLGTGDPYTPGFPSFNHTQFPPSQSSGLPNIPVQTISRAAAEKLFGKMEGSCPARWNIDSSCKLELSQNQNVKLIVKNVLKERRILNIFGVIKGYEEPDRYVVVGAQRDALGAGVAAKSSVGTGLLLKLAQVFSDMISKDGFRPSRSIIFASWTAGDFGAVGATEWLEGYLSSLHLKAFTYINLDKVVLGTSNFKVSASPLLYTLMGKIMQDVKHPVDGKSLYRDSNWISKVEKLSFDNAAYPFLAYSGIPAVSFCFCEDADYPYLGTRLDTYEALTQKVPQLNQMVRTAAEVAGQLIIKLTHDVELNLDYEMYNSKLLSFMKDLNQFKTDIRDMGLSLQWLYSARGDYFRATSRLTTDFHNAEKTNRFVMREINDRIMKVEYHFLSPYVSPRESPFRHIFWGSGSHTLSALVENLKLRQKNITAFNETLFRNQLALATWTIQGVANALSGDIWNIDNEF
T18 sequence (Q62351 whole entry S328A): as the sequence (Q62351 whole entry S197A) above, with A197S, S328A counted along it
T10 sequence (Q62351 whole entry K380A): as the sequence (Q62351 whole entry S197A) above, with A197S, K380A counted along it
T20 sequence (Q62351 whole entry K226A): as the sequence (Q62351 whole entry S197A) above, with A197S, K226A counted along it
T12 sequence (Q62351 whole entry S196A): as the sequence (Q62351 whole entry S197A) above, with S196A, A197S counted along it
T4 sequence (Q62351 whole entry S255A): as the sequence (Q62351 whole entry S197A) above, with A197S, S255A counted along it
T24 sequence (Q62351 whole entry S231A): as the sequence (Q62351 whole entry S197A) above, with A197S, S231A counted along it
T3 sequence (Q62351 whole entry K191A): as the sequence (Q62351 whole entry S197A) above, with K191A, A197S counted along it
T11 sequence (Q62351 whole entry I279A): as the sequence (Q62351 whole entry S197A) above, with A197S, I279A counted along it
T19 sequence (Q62351 whole entry Q193A): as the sequence (Q62351 whole entry S197A) above, with Q193A, A197S counted along it
T13 sequence (Q62351 whole entry G330A): as the sequence (Q62351 whole entry S197A) above, with A197S, G330A counted along it
T5 sequence (Q62351 whole entry I198A): as the sequence (Q62351 whole entry S197A) above, with A197S, I198A counted along it
T14 sequence (Q62351 whole entry N333A): as the sequence (Q62351 whole entry S197A) above, with A197S, N333A counted along it
T2 sequence (P02786 89-760 limits assumed): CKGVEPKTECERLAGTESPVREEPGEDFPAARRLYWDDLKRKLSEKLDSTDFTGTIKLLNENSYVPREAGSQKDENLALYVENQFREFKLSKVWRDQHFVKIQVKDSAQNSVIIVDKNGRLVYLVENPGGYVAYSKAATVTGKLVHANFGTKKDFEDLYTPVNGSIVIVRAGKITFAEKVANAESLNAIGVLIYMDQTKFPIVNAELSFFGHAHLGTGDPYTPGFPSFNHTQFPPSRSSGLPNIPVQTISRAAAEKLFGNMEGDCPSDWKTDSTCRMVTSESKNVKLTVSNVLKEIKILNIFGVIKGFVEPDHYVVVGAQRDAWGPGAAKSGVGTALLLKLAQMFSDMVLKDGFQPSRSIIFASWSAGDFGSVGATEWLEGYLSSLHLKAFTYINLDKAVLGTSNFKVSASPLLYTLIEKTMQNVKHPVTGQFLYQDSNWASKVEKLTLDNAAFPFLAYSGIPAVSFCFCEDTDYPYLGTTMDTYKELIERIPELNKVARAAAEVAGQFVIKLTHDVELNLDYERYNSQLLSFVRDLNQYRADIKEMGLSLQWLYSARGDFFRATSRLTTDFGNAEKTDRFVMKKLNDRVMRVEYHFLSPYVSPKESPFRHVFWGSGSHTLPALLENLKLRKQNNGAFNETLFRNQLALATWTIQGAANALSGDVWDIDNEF
T21 sequence (Q62351 whole entry G254A): as the sequence (Q62351 whole entry S197A) above, with A197S, G254A counted along it
T7 sequence (Q62351 whole entry N253A): as the sequence (Q62351 whole entry S197A) above, with A197S, N253A counted along it
T1 sequence (Q62351 89-763 limits assumed, stated change not applied): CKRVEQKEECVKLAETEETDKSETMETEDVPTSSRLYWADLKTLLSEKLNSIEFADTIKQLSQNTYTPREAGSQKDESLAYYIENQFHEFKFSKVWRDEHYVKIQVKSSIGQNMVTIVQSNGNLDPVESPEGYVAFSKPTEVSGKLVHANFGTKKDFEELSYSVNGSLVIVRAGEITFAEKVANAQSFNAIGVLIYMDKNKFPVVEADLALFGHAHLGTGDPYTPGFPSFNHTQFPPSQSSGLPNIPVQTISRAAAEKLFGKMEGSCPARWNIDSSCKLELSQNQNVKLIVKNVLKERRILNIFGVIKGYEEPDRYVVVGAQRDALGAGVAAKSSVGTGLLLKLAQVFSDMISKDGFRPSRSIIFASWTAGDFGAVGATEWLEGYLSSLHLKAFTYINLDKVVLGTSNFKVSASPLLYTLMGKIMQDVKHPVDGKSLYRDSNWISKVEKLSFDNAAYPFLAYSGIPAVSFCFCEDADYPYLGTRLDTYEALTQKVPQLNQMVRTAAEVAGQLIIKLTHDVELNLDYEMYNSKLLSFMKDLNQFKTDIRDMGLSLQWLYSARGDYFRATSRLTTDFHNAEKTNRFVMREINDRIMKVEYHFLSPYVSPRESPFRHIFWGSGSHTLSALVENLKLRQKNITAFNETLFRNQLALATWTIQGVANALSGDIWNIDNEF
T17 sequence (Q62351 whole entry S329A): as the sequence (Q62351 whole entry S197A) above, with A197S, S329A counted along it
T9 sequence (Q62351 whole entry P227A): as the sequence (Q62351 whole entry S197A) above, with A197S, P227A counted along it
T8 sequence (Q62351 whole entry): as the sequence (Q62351 whole entry S197A) above, with A197S counted along it
T22 sequence (Q62351 whole entry S225A): as the sequence (Q62351 whole entry S197A) above, with A197S, S225A counted along it
T6 sequence (Q62351 whole entry V382A): as the sequence (Q62351 whole entry S197A) above, with A197S, V382A counted along it
T16 sequence (Q62351 whole entry T228A): as the sequence (Q62351 whole entry S197A) above, with A197S, T228A counted along it
T23 sequence (Q62351 whole entry P325A): as the sequence (Q62351 whole entry S197A) above, with A197S, P325A counted along it

Row | Binder | Kd [1] | koff [1] | % double-positive cells vs WT [5] | % double-positive cells vs WT [6] | % double-positive cells vs WT [8] | % double-positive cells vs WT [9] | % double-positive cells vs WT [10] | % double-positive cells vs WT [11] | % double-positive cells vs WT [12] | % double-positive cells vs WT [13] | % double-positive cells vs WT [14] | % double-positive cells vs WT [15] | % double-positive cells vs WT [16] | % double-positive cells vs WT [17] | % double-positive cells vs WT [18] | % double-positive cells vs WT [20] | % double-positive cells vs WT [21] | % double-positive cells vs WT [22] | % double-positive cells vs WT [23] | % double-positive cells vs WT [24] | also measured
1 | Clone C VNAR-hFc fusion (Fc fusion, not shown: a dimerising Fc or GST, bivalent VNAR-Fc; also called Clone C-hFc) ARVDQTPQTITKETGESLTINCVLRDSNCALSSTYWYRKKSGSTNEENISKGGRYVETVNSGSKSFSLRINDLTVEDSGTYRCNVVQYPSYNNYFWCDVYGDGTAVTVN | 0.892 nM | 0.000191 s⁻¹ | 239% | 357% | 100% | 77% | 193% | 177% | 123% | 307% | 213% | 111% | 68% | 212% | 50% | 157% | 35% | 180% | 148% | 283% | kon [1]: 214000 M⁻¹ s⁻¹; Kd [2]: 0.604 nM; koff [2]: 0.000145 s⁻¹; kon [2]: 240000 M⁻¹ s⁻¹; % double-positive cells vs WT [3]: 51%; % double-positive cells vs WT [4]: 14%; % double-positive cells vs WT [7]: 26%; % double-positive cells vs WT [19]: 152%
2 | Clone C variant 18 VNAR-hFc (Fc fusion, not shown: a dimerising Fc or GST, also called Clone C v18; Clone C var; 18) ARVDQTPQTITKETGESLTINCVLRDSNCALSSTYWYRKKSGSTNEENISKGGRYVETVNSGSKSFSLRINDLTVEDSGTYRCNVVQYPQYPNYFWCDVYGDGTAVTVN | 0.863 nM | 0.000269 s⁻¹ | 79% | 241% | 100% | 20% | 162% | 206% | 104% | 231% | 161% | 66% | 45% | 182% | 20% | 91% | 32% | 163% | 175% | 173% | kon [1]: 312000 M⁻¹ s⁻¹; Kd [2]: 0.314 nM; koff [2]: 0.000113 s⁻¹; kon [2]: 360000 M⁻¹ s⁻¹; % double-positive cells vs WT [3]: 25%; % double-positive cells vs WT [4]: 23%; % double-positive cells vs WT [7]: 10%; % double-positive cells vs WT [19]: 178%
3 | Clone C variant 13 VNAR-hFc (Fc fusion, not shown: a dimerising Fc or GST, also called Clone C v13; Clone C var; 13) ARVDQTPQTITKETGESLTINCVLRDSNCALSSTYWYRKKSGSTNEENISKGGRYVETVNSGSKSFSLRINDLTVEDSGTYRCNVVQYPQQDNYFWCDVYGDGTAVTVN | 0.165 nM | 4.09e-05 s⁻¹ | 73% | 111% | 100% | 47% | 81% | 85% | 47% | 87% | 94% | 56% | 65% | 73% | 22% | 77% | 22% | 73% | 83% | 101% | kon [1]: 248000 M⁻¹ s⁻¹; Kd [2]: 0.574 nM; koff [2]: 0.00017 s⁻¹; kon [2]: 297000 M⁻¹ s⁻¹
4 | 8D3 antibody (anti-mouse TfR-1 control; 8D3-hFc formatted antibody) (antibody, V domains shown) VH: EVQLVESGGGLVQPGNSLTLSCVASGFTFSNYGMHWIRQAPKKGLEWIAMIYYDSSKMNYADTVKGRFTISRDNSKNTLYLEMNSLRSEDTAMYYCAVPTSHYVVDVWGQGVSVTVSS VL: DIQMTQSPASLSASLEEIVTITCQASQDIGNWLAWYQQKPGKSPQLLIYGATSLADGVPSRFSGSRSGTQFSLKISRVQVEDIGIYYCLQAYNTPWTFGGGTKLELK | – | – | 94% | 82% | 100% | 63% | 66% | 74% | 74% | 90% | 90% | 100% | 89% | 18% | 141% | 111% | 58% | 64% | 119% | 65% | % double-positive cells vs WT [3]: 91%; % double-positive cells vs WT [4]: 56%; % double-positive cells vs WT [7]: 87%; % double-positive cells vs WT [19]: 63%
